We go through two molecules from article PMC2749821 (2009).

Test [1] has as its target T1, BMPR1B (Mus musculus (Mouse), UniProt P36898).
T1 chain: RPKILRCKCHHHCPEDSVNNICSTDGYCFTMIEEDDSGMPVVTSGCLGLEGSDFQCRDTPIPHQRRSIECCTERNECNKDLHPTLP
Briefly: SPR 1:1 (ligand immobilised, monomeric ECD analyte).

The target of test [2] is T2, ACVR2B (Mus musculus (Mouse), UniProt P27040).
T2 chain: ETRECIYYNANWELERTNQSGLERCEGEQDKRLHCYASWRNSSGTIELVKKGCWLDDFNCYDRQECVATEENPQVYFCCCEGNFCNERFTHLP
Described as above.

B1: BMP7 (protein)
chain 1: DQRQACKKHELYVSFRDLGWQDWIIAPEGYAAYYCEGECAFPLNSYMNATNHAIVQTLVHFINPETVPKPCCAPTQLNAISVLYFDDSSNVILKKYRNMVVRACGCH
chain 2: B1 chain 1
Broadly, the Kd is the equilibrium constant for the complex coming apart. On to B1, for which the dissociation constant Kd in test [1] worked out at 750 nM; in test [2], 2500 nM.

B2: ActivinA (protein)
chain 1: GLECDGKVNICCKKQFFVSFKDIGWNDWIIAPSGYHANYCEGECPSHIAGTSGSSLSFHSTVINHYRMRGHSPFANLKSCCVPTKLRPMSMLYYDDGQNIIKKDIQNMIVEECGCS
chain 2: B2 chain 1
As for B2, the dissociation constant (Kd) in test [1] was greater than 64000 nM; in test [2] it was 88 nM.
